In the DeepSol protein solubility set:

Assay: soluble on expression in E. coli; label from the status in PepcDB or PDB records

Sequence | soluble on expression in E. coli
MSLAYKGYLIDLDGTIYKGKSRIPAGERFIERLQEKGIPYMLVTNNTTRTPESVQEMLRGFNVETPLETIYTATMATVDYMNDMNRGKTAYVIGEEGLKKAIADAGYVEDTKNPAYVVVGLDWNVTYDKLATATLAIQNGALFIGTNPDLNIPTERGLLPGAGSLNALLEAATRIKPVFIGKPNAIIMNKALEILNIPRNQAVMVGDNYLTDIMAGINNDIDTLLVTTGFTTVEEVPDLPIQPSYVLASLDEWTFNEGHHHHHH | soluble
MSLDCSIKMLKDVPVKMRDGITIYTDIYLPITEEKVPTLIAWSPYGKSAGTAPRYKNLFNMLGMGNAWNSGLTKFEAPDPAYWCAHGYAVCNPDMRGIAHSEGNTTMIGSQEAEDGYDLIEWLAKQSWSNGKTALTGTSYLAFSQWYIAAEQPPHLTCINPTEGLADGYRDLAFIGGIPDPNFIERLQINHVSAKNSQREDLTKEMEAYPLADSAIWKDKVADPSKITIPAFVIASYSNTLHTMGTFRSWRSLGSKEKWLRIHDRQEWPYYYDENNVEELRRFFDYYLLGKENNWTDTPTVRYALIDFQGGNQTDLPSEVFPPTNSENKRYYMNGLLRTLQETPTSDDFKVSYTTENLPGRASFQMTFDKETHFVGYPKAKLFMEVDGYDDLDVFVWLQKLDKFGNVLSEFVVPNHGAALQDFTQEGASALRYKGAWGRLRASMRQLDSQVSTDEIPAYSFDKVEKLSSGEIVELDIILSPIGLTYKAGETLRVVVSSKDELGSVMPGTPGCTPNNKGMHILHTSKEHPSYIQLPIINKEGHHHHHH | soluble
MSLDDFCNIPKGKEVVFGFNVPQSGAYADEGMDELKAYQLAVKHLNGEGDGGMLKTMKPLALKGNGVLGKKVTFVSGDTQTKADQARATAKRMIEKDGAIMITGGSSSAEAVAVQSLCQDVGVIFMAGLTHSNDTTGKDKRAYGFRHFFNAYMSGVALGPVLAEAYGKDRAAYHLTADYTWGWTQEESMKDATEKQGWKTVKAVRTPLGAADFSQYITPVLNSGADVLILNHYGKDMINSLTQAVQFGLRDKMANGKKFEIVVPLFSELMAQGAGDAIKGIYGTANWDWKLEDAATSAFTKSFGAAYGTPPSQAAQTCYVQAILYADAVERAGTFNPSKVIAALEGFEFDGLGNGKTLYRAADHQCFKDVLVVQGKEKPKEGHHHHHH | not soluble
MSLDDGTGLFTIGQLARRTGLSVRTIRYWSDEGALPPVTRSSGGYRLYDAGSVARLELIRTLRELGLGLDDVREVLAGETTVAEVAATHVTALDAQIRALKVTRAVLSTVARRGSTAEEMTLMNKLARLSAAERRRILEEFADEMFRGLDTADPVIRERMRNTAVDLPDEPTPEQVDAWVELVELLQDPEFRAQMRAAAEFNAADRGHDSPAGASLWFVRRLVQLAADARQRGEGHHHHHH | not soluble
MSLDDYGIPQVAEINEQISVVWKDYGISPAPEAQDFEWVRRVYLDIIGRVPSVAELEEFQRDRGKDRKKNLVEKLLNDSAFTEEYARNWTTIWTNVLIGRNGGLDNNSQVSREGMQKYLRDSFARNKPYDQLVREVITSEGANAPGMPNFNGAVNFYMDKLAEDGVQATAKTAQIFLGVQVQCTQCHNHPFNSWKQDKFWELNAFFRQTRAQRDRGMEANEGHHHHHH | not soluble
MSLDEIAVPILSIITLSSYQPDTIALVDDFSSVSYRNAIIHIETVSEQIASCVANSLTKRVMAYFAGSAEMVLAILGAQLSGAAYIPIEPKTPGSRIDAIADVAKPCMIMTDSQNRQGAQSIAERLGIPLVVLSLKKAGKTLDIFREGYREQPFTVERLTSSTPAVVFFTSGSTGTPKGVELSHLGYYRWFEGVQDLIQVKRGDRVALTTNHSFDLSLGELYLGLMSGATLYVPRQSTVRDPLSLVPWLDQHEITVFQSVPSLMRRILLFRESAGQGLETVRTIMFCGEPLEQQLVKKVKDSFPFSHTRILNLYGPVEASVQVTYCWAEEYLGSEDVIIPLGKPLKHVVVRLAEVDDTSHELQITGDHLALRYLDEKKTRESFINDEAEGTRFYRTGDLGRLNARGDLEYHGRVDDQVKINGYRIELGEIEKTIIDHFKATDCCVLIEKSEGEPSLVAFVVSPNDSVADLRRAVADHLPTYMIPRTVIFIESIPLNTNGKRDKPSLRAEYLKEGHHHHHH | not soluble
MSLDEPTDGTGAGTSATEMLDSLEVKGRAPKTGYKRTQFGKAWADVDHNGCDTRNDILNRDLTGVRHKWRTHNCVVKSGKLHDPYTGKDIKFKKGKKTSTAVQIDHVVALSDAWQKGAQKLSEERRTALANDPYNLMAVQGRANQKKSDGDAATWMPSNKGFRCEYVARQIGVKHKYSLWVTQAEKEAMAKVLSSCPTQTVPDYTGVKDSTAEKTTESEQTEQTQTEQSAEQAQQTQQTTQAPAPEPAPAPAPAPQPAPQQDVYYQNCTAARAAGAAPIYQGQPGYRSQLDRDHDGVACEEGHHHHHH | soluble
MSLDFNDEIYRELNRICASLSQQCSTYQPEFRTCLDAAFQALRGGKLIRPRMLLGLYNTLVDDDIEVKLNTVLQVAVALELLHFSLLVHDDVIDGDLYRRGKLNFIGQILMHRTPESFAQIQRDPEHLDWAQSNGLLMGNLFLAATHQIFARLDLPHHQRVRLLDLLNHTINDTIVGEFLDVGLSSKAISPNMDIALEMSRLKTATYTFELPMRAAAILAELPQEIETKIGEIGTNLGIAYQLQDDYLSTFGDAAEHGKDAFSDLREGKETTIIAFARDTAKWTDIQDNFGSADLSTSQAERIQHLLIQCGAKNHSLNAISDHLNICRSMIKTLSPQVDPKAQNLLLKQVEQLASRKSEGHHHHHH | soluble
MSLDHHLQGPVVAGMPNLHSHAFQRGMAGLSESRSGEKDSFWSWRKRMYHFLQVLSPEDVEAIASQLYLEMLKAGYTSVGEFHYLHHAVDGKHYANPAEMSERILAASETTGIGLTHLPVLYRFGGFGSREPSFQQGRFIHEPDEFVSLLEKLSPSFEKHPNRRLGMAPHSLRAVSPDLLSKVLPEFQRLCPGSPLHLHISEQTAEVEECLEWSGLRPVQWFFENLEPDSNWCLIHATHLDSQERRKLAESEVTVGLCPTTEANLGDGIFPMKEFMEEGGGFGIGSDSHVSISLCEELRWLEYQQRLLQRQRNCLREGHHHHHH | soluble
MSLDKRYIIAEIKVSIVKTQSAGADYTDHAAGHWINDTIIANPMSVYNDFQHSRSAWGMDVLKGIFIEVTTESGHQGYATAYGGYISSWIIKNHLNRFLIGADARNLSKLYDQMYRASIPYSGQNGVVINTIAGIDLALWDLIGKVRQEPVYMMIGGKVREKLQTYVTGPEAKLAQDWGHVGSKIPLPYGPGDGIVGLKKNQEYIMETRKQVGSDYRLMVDCYMSLDVPYAIDLANAVKEANLYWIEEALPPHDLESHKHIKDACPWQKWTTGEHTNSRYGFRNLIRDRSVDILQPDLTLCGMTETLRIAAMASAYDITVIPHCSGVYAYNFGIASTLTPFNEFINLHPKATEVVPIFGKMFTNEPVPIKGEVTLTDLPGFGAELNKEVELEEIEGHHHHHH | soluble
MSLDLREYSTDHQKIKRIEFNCKSKNNTLDGLLTPEEIVAEAKRQGHSAVGISDYNSIFSFPEFYYAAKANNIKPIYGAGFAMLEDTNGAFLTEFQNQDLITGRYVVFDIETTSLSAYHGEIIEFAATIIENKAVVDKVDIFIKSKEKLSHFTTRLTSITNEMLDQKGIELKEALQKIYDVMNNNVAVAHNANFDYNFLIEKFDQNNMQAPKCTFIDSLVVSRILFEHRDKHNLNEFCRNMSVNYDTEKAHRALYDTEVLADAWIEATLKMKDIKQISNFQELSEYKSDALFSKYFSLYINTVVKNQAGLKELFQLVSIANTKTFYGAPKIFWSTLKSFKNILVGSNGVQGELFDIMMLSSRQRVEKYIQKLDYIEIPHPDLFDSYLDRNQLTKDQLLESLQILISLAKKHNKLIISTAEPRYRHKGDREIFKVLTSFPIRDKRHFLWNYKAVKAGNYSVPNFYFLTTDEMLDAFSFLKDKSLIEDIVVNNAHKLNNLIDENIEVIKTDLYPPSIKNSSELLKDLVYKNAKKKYGEVLPKLVQDRIDKELIPIINYKFDVVYWISHILVKKANDDGYVVGSRGSVGSSLIANLINITEVNPLEPHYICDNCKHFEVVNNDKITSGYDLDDKNCPNCDSIMDKDGHSIPFETFLGFKADKVPDIDLNFSGEYQIAIHNYTRELFGEDKTFRAGTVSSIQYRKAFGFIKKYIEDTNTFYSNGFIDYLAEKCIDVKVTTGKHAGGIVVLPENLDIEEFTPVNYASDGLEDKEWKTTHFKYDFLKENLLKLDLLGHSDPTQIRFLEQATGLLSKNIPKKDKNLLKLFSSTEPMEIDPNDINGETTGAIALPEFGTKFTREIIKTSKPHLFADLISISGLSHGQNVWKNNAEDLILNENKTLNEIVCCRDDIMNYLIKKGVDASLSFKVTESVRKGKGVDSEDIKILSTYNIPDWFFDSMQKIKYMFPRAHAVAYVIMAWRMGYYKLYYPLEFYASFFSVKCSKFDLSAMIDFSKDGYWKIKNKIEEIEKLIRTNNKKDNKKEEDILESLNVALEMYSRGFTIQNIDIEKSDAYNWIIDKDSKSLIPPFSALDGIEAGAIKIINARKERPFKTVLDFAKRSGVSSTIVEKLKELNVFKDLPESEQLSLFGEGHHHHHH | soluble
MSLDNAMRNIFNGMMTTTSPASFETATRTGVVGGSFSYRTTNVNTNLVSMSFPKASVGCNGIDVFLGSFSMINGDQLVQVARGIAQGAAIYAFNVAVSAICADCAATINDIQNKLQALNKFAKDSCNATYSFLTENVGPPSQFANAVSSGPASMLGTLNGLLPDFGSSMTKSPETVTSQVKAKDPEEFAEKFSGNLFYMSFMDIDKGSMNIGGVTELSGYRLAEQLMSLVGTVIINWDAKGEKAGMEVRPSTMTVSDFIMGPPAGGSIKMLKCSPAPDPASARKSQCLVMSEVTDGGFKGLKDTISDLLIQVQTKAISDVRISDDELRIISYIGIPTILDSLQTFDVPEGYAYIQDISAIAATSLVINMLRQVEAKISAMNIPSESLSGRRQDLTRLSENLTNQVKAAYELTRSQVGNSSDVISAWDDRRLKRKAFMESLRGTGNEGHHHHHH | not soluble
MSLDPVGPISDEETSYYVRLQYNGEFLPLFTKVDGITYKKDKSDYSPLKPSFIAGGGAFGYKMDDIRVDVEGVYSYLNKNDVKDVTFDPANTIADSVTAISGLVNVYYDIAIEDMPITPYIGVGVGATYISTPLEPAVNDQKSKFGFAGQVKAGVSYDVTPEVKLYAGARYFGSYGANFDGKKTDPKDSTRQVTDAGAYKVLYSTVGAEAGVAFNFEGHHHHHH | not soluble
MSLDRNEMLEFAAKLHSHLSPGVALGIKMAQIAYEKLGVNFRGKGLVGIAETAMCLPDALQVVAGTTPGNRNLIVKDYGKLALAIVRFDTREGYRVTIKKEAAKKSELIKKFLYRLGKLNKEEEKRLAEEFLNLEPEYFEVREIRLTIPVGGTKEPIVECEKCGELQPSDYVAEVDGRMVCFMCAGKGYFEEGGSHHHHHH | soluble
MSLDRVDWPHATFSTPVKRIFDTQTTLDFQSSLAIHRIKYHLHKYTTLISHCSDPDPHATASSIAMVNGLMGVLDKLAHLIDETPPLPGPRRYGNLACREWHHKLDERLPQWLQEMLPSEYHEVVPELQYYLGNSFGSSTRLDYGTGHELSFMATVAALDMLGMFPHHRGADVFLLFNKYYTIMRRLILTYTLEPAGSHGVWGLDDHFHLVYILGSSQWQLLDAQAPLQPREILDKSLVREYKDTNFYCQGINFINEVKMGPFEEHSPILYDIAVTVPRWSKVCKGLLKMYSVEVEKKFPVVQHFWFGTGFFPWVNIHHHHHH | soluble
MSLDSKIDILIVVNMFLTGFDSKVLNTLYVDKNLMYHDLIQAYSRTNRVEKESKPFGKIVNYRDLKKETDDALRVFSQTNDTDTILMRSYEEYKKEFMDAYRELKMIVPTPHMVDDIQDEEELKRFVEAYRLLAKIILRLKAFDEFEFTIDEIGMDEQENEDYKSKYLAVYDQVKRATAEKNKVSILNDIDFEIEMMRNDTINVNYIMNILRQIDLEDKAEQREGHHHHHH | soluble
